In experiment [1] the target is binding partner of C5A (XPA23). Kind of experiment: Biacore. A general note: In SPR one partner is held on a chip, and binding of the other changes the refractive index at the surface.
The target of experiment [2] is binding partner (antigen) of C5A (XPA23). Kind of experiment: Biacore, K-off, fold vs original.

B1: C5A (XPA23) VH I51V (antibody, V domains shown)
VH: EVQLLESGGGLVQPGGSLRLSCAASGFTFSKYFMFWVRQAPGKGLEWVSVVSPSGGMTRYADSVKGRFTISRDNSKNTLYLQMNSLRAEDTAVYYCARVGYGGNSDYWGQGTLVTVSS
VL: DIQMTQSPSSVSASVGDRLTIICRASQDINRWLAWYQQTPGNAPKLLIHSATSLQSGVPSRFSGSGSGTDFTLTINSLQPEDFATYYCQQADSFPLTFGGGTKVEIK
As for B1, the fold difference in affinity vs original in experiment [1] and in experiment [2] was 0.99 fold throughout.

B2: C5A (XPA23) VH P53G (antibody, V domains shown)
VH: EVQLLESGGGLVQPGGSLRLSCAASGFTFSKYFMFWVRQAPGKGLEWVSVISGSGGMTRYADSVKGRFTISRDNSKNTLYLQMNSLRAEDTAVYYCARVGYGGNSDYWGQGTLVTVSS
VL: DIQMTQSPSSVSASVGDRLTIICRASQDINRWLAWYQQTPGNAPKLLIHSATSLQSGVPSRFSGSGSGTDFTLTINSLQPEDFATYYCQQADSFPLTFGGGTKVEIK
Take B2: the fold difference in affinity vs original in experiment [1] and in experiment [2] was 0.02 fold throughout.

B3: C5A (XPA23) VH P53L (antibody, V domains shown)
VH: EVQLLESGGGLVQPGGSLRLSCAASGFTFSKYFMFWVRQAPGKGLEWVSVISLSGGMTRYADSVKGRFTISRDNSKNTLYLQMNSLRAEDTAVYYCARVGYGGNSDYWGQGTLVTVSS
VL: DIQMTQSPSSVSASVGDRLTIICRASQDINRWLAWYQQTPGNAPKLLIHSATSLQSGVPSRFSGSGSGTDFTLTINSLQPEDFATYYCQQADSFPLTFGGGTKVEIK
As for B3, the fold difference in affinity vs original in experiment [1] and in experiment [2] was 0.04 fold in each case.

B4: C5A (XPA23) VH I51F (antibody, V domains shown)
VH: EVQLLESGGGLVQPGGSLRLSCAASGFTFSKYFMFWVRQAPGKGLEWVSVFSPSGGMTRYADSVKGRFTISRDNSKNTLYLQMNSLRAEDTAVYYCARVGYGGNSDYWGQGTLVTVSS
VL: DIQMTQSPSSVSASVGDRLTIICRASQDINRWLAWYQQTPGNAPKLLIHSATSLQSGVPSRFSGSGSGTDFTLTINSLQPEDFATYYCQQADSFPLTFGGGTKVEIK
Take B4: in experiment [1], the fold affinity vs original came to 0.9 fold. In addition, in experiment [2], the fold difference in affinity vs original turned out to be 0.9 fold.

B5: C5A (XPA23) VH S54G (antibody, V domains shown)
VH: EVQLLESGGGLVQPGGSLRLSCAASGFTFSKYFMFWVRQAPGKGLEWVSVISPGGGMTRYADSVKGRFTISRDNSKNTLYLQMNSLRAEDTAVYYCARVGYGGNSDYWGQGTLVTVSS
VL: DIQMTQSPSSVSASVGDRLTIICRASQDINRWLAWYQQTPGNAPKLLIHSATSLQSGVPSRFSGSGSGTDFTLTINSLQPEDFATYYCQQADSFPLTFGGGTKVEIK
In the case of B5, the fold difference in affinity vs original in experiment [1] and in experiment [2] was 1.43 fold in each case.

B6: C5A (XPA23) VH S52A (antibody, V domains shown)
VH: EVQLLESGGGLVQPGGSLRLSCAASGFTFSKYFMFWVRQAPGKGLEWVSVIAPSGGMTRYADSVKGRFTISRDNSKNTLYLQMNSLRAEDTAVYYCARVGYGGNSDYWGQGTLVTVSS
VL: DIQMTQSPSSVSASVGDRLTIICRASQDINRWLAWYQQTPGNAPKLLIHSATSLQSGVPSRFSGSGSGTDFTLTINSLQPEDFATYYCQQADSFPLTFGGGTKVEIK
B6: the fold difference in affinity vs original in experiment [1] and in experiment [2] was 0.05 fold throughout.

B7: C5A (XPA23) VH S54A (antibody, V domains shown)
VH: EVQLLESGGGLVQPGGSLRLSCAASGFTFSKYFMFWVRQAPGKGLEWVSVISPAGGMTRYADSVKGRFTISRDNSKNTLYLQMNSLRAEDTAVYYCARVGYGGNSDYWGQGTLVTVSS
VL: DIQMTQSPSSVSASVGDRLTIICRASQDINRWLAWYQQTPGNAPKLLIHSATSLQSGVPSRFSGSGSGTDFTLTINSLQPEDFATYYCQQADSFPLTFGGGTKVEIK
With B7, the fold difference in affinity vs original in experiment [1] and in experiment [2] was 1 fold each time.

B8: C5A (XPA23) VH S52G (antibody, V domains shown)
VH: EVQLLESGGGLVQPGGSLRLSCAASGFTFSKYFMFWVRQAPGKGLEWVSVIGPSGGMTRYADSVKGRFTISRDNSKNTLYLQMNSLRAEDTAVYYCARVGYGGNSDYWGQGTLVTVSS
VL: DIQMTQSPSSVSASVGDRLTIICRASQDINRWLAWYQQTPGNAPKLLIHSATSLQSGVPSRFSGSGSGTDFTLTINSLQPEDFATYYCQQADSFPLTFGGGTKVEIK
In the case of B8, the fold difference in affinity vs original in experiment [1] and in experiment [2] was 0.03 fold each time.

B9: C5A (XPA23) VH S52P (antibody, V domains shown)
VH: EVQLLESGGGLVQPGGSLRLSCAASGFTFSKYFMFWVRQAPGKGLEWVSVIPPSGGMTRYADSVKGRFTISRDNSKNTLYLQMNSLRAEDTAVYYCARVGYGGNSDYWGQGTLVTVSS
VL: DIQMTQSPSSVSASVGDRLTIICRASQDINRWLAWYQQTPGNAPKLLIHSATSLQSGVPSRFSGSGSGTDFTLTINSLQPEDFATYYCQQADSFPLTFGGGTKVEIK
Turning to B9, the fold difference in affinity vs original in experiment [1] and in experiment [2] was 0.05 fold throughout.

B10: C5A (XPA23) VH I51L (antibody, V domains shown)
VH: EVQLLESGGGLVQPGGSLRLSCAASGFTFSKYFMFWVRQAPGKGLEWVSVLSPSGGMTRYADSVKGRFTISRDNSKNTLYLQMNSLRAEDTAVYYCARVGYGGNSDYWGQGTLVTVSS
VL: DIQMTQSPSSVSASVGDRLTIICRASQDINRWLAWYQQTPGNAPKLLIHSATSLQSGVPSRFSGSGSGTDFTLTINSLQPEDFATYYCQQADSFPLTFGGGTKVEIK
Turning to B10, the fold difference in affinity vs original in experiment [1] and in experiment [2] was 0.79 fold in each case.

B11: C5A (XPA23) VH S54L (antibody, V domains shown)
VH: EVQLLESGGGLVQPGGSLRLSCAASGFTFSKYFMFWVRQAPGKGLEWVSVISPLGGMTRYADSVKGRFTISRDNSKNTLYLQMNSLRAEDTAVYYCARVGYGGNSDYWGQGTLVTVSS
VL: DIQMTQSPSSVSASVGDRLTIICRASQDINRWLAWYQQTPGNAPKLLIHSATSLQSGVPSRFSGSGSGTDFTLTINSLQPEDFATYYCQQADSFPLTFGGGTKVEIK
B11: the fold difference in affinity vs original in experiment [1] and in experiment [2] was 0.91 fold each time.

B12: C5A (XPA23) VH S52V (antibody, V domains shown)
VH: EVQLLESGGGLVQPGGSLRLSCAASGFTFSKYFMFWVRQAPGKGLEWVSVIVPSGGMTRYADSVKGRFTISRDNSKNTLYLQMNSLRAEDTAVYYCARVGYGGNSDYWGQGTLVTVSS
VL: DIQMTQSPSSVSASVGDRLTIICRASQDINRWLAWYQQTPGNAPKLLIHSATSLQSGVPSRFSGSGSGTDFTLTINSLQPEDFATYYCQQADSFPLTFGGGTKVEIK
Take B12: the fold difference in affinity vs original in experiment [1] and in experiment [2] was 0.04 fold in each case.

B13: C5A (XPA23) VH P53A (antibody, V domains shown)
VH: EVQLLESGGGLVQPGGSLRLSCAASGFTFSKYFMFWVRQAPGKGLEWVSVISASGGMTRYADSVKGRFTISRDNSKNTLYLQMNSLRAEDTAVYYCARVGYGGNSDYWGQGTLVTVSS
VL: DIQMTQSPSSVSASVGDRLTIICRASQDINRWLAWYQQTPGNAPKLLIHSATSLQSGVPSRFSGSGSGTDFTLTINSLQPEDFATYYCQQADSFPLTFGGGTKVEIK
Consider B13, for which the fold difference in affinity vs original in experiment [1] and in experiment [2] was 0.05 fold each time.

B14: C5A (XPA23) VH P53V (antibody, V domains shown)
VH: EVQLLESGGGLVQPGGSLRLSCAASGFTFSKYFMFWVRQAPGKGLEWVSVISVSGGMTRYADSVKGRFTISRDNSKNTLYLQMNSLRAEDTAVYYCARVGYGGNSDYWGQGTLVTVSS
VL: DIQMTQSPSSVSASVGDRLTIICRASQDINRWLAWYQQTPGNAPKLLIHSATSLQSGVPSRFSGSGSGTDFTLTINSLQPEDFATYYCQQADSFPLTFGGGTKVEIK
With B14, the fold difference in affinity vs original in experiment [1] and in experiment [2] was 1.1 fold each time.

B15: C5A (XPA23) VH P53I (antibody, V domains shown)
VH: EVQLLESGGGLVQPGGSLRLSCAASGFTFSKYFMFWVRQAPGKGLEWVSVISISGGMTRYADSVKGRFTISRDNSKNTLYLQMNSLRAEDTAVYYCARVGYGGNSDYWGQGTLVTVSS
VL: DIQMTQSPSSVSASVGDRLTIICRASQDINRWLAWYQQTPGNAPKLLIHSATSLQSGVPSRFSGSGSGTDFTLTINSLQPEDFATYYCQQADSFPLTFGGGTKVEIK
For B15, the fold difference in affinity vs original in experiment [1] and in experiment [2] was 0.08 fold in each case.

B16: C5A (XPA23) VH P53W (antibody, V domains shown)
VH: EVQLLESGGGLVQPGGSLRLSCAASGFTFSKYFMFWVRQAPGKGLEWVSVISWSGGMTRYADSVKGRFTISRDNSKNTLYLQMNSLRAEDTAVYYCARVGYGGNSDYWGQGTLVTVSS
VL: DIQMTQSPSSVSASVGDRLTIICRASQDINRWLAWYQQTPGNAPKLLIHSATSLQSGVPSRFSGSGSGTDFTLTINSLQPEDFATYYCQQADSFPLTFGGGTKVEIK
Turning to B16, the fold affinity vs original in experiment [1] worked out at 0.05 fold. In experiment [2], the fold difference in affinity vs original came to 0.05 fold.

B17: C5A (XPA23) VH P53F (antibody, V domains shown)
VH: EVQLLESGGGLVQPGGSLRLSCAASGFTFSKYFMFWVRQAPGKGLEWVSVISFSGGMTRYADSVKGRFTISRDNSKNTLYLQMNSLRAEDTAVYYCARVGYGGNSDYWGQGTLVTVSS
VL: DIQMTQSPSSVSASVGDRLTIICRASQDINRWLAWYQQTPGNAPKLLIHSATSLQSGVPSRFSGSGSGTDFTLTINSLQPEDFATYYCQQADSFPLTFGGGTKVEIK
Consider B17, for which the fold affinity vs original in experiment [1] came to 0.05 fold. The fold difference in affinity vs original in experiment [2] turned out to be 0.05 fold.

B18: C5A (XPA23) VH S54I (antibody, V domains shown)
VH: EVQLLESGGGLVQPGGSLRLSCAASGFTFSKYFMFWVRQAPGKGLEWVSVISPIGGMTRYADSVKGRFTISRDNSKNTLYLQMNSLRAEDTAVYYCARVGYGGNSDYWGQGTLVTVSS
VL: DIQMTQSPSSVSASVGDRLTIICRASQDINRWLAWYQQTPGNAPKLLIHSATSLQSGVPSRFSGSGSGTDFTLTINSLQPEDFATYYCQQADSFPLTFGGGTKVEIK
With B18, the fold difference in affinity vs original in experiment [1] and in experiment [2] was 0.86 fold each time.

B19: C5A (XPA23) VH S54V (antibody, V domains shown)
VH: EVQLLESGGGLVQPGGSLRLSCAASGFTFSKYFMFWVRQAPGKGLEWVSVISPVGGMTRYADSVKGRFTISRDNSKNTLYLQMNSLRAEDTAVYYCARVGYGGNSDYWGQGTLVTVSS
VL: DIQMTQSPSSVSASVGDRLTIICRASQDINRWLAWYQQTPGNAPKLLIHSATSLQSGVPSRFSGSGSGTDFTLTINSLQPEDFATYYCQQADSFPLTFGGGTKVEIK
For the molecule B19, the fold difference in affinity vs original in experiment [1] and in experiment [2] was 1 fold each time.

Source of the values: patent US20110118447A1.
